{
  "source": "patent US20210163900",
  "tested_on": "T1, MTA1c (MTA1/MTA9/p1/p2 complex) (Tetrahymena thermophila)",
  "T1 sequence 1": "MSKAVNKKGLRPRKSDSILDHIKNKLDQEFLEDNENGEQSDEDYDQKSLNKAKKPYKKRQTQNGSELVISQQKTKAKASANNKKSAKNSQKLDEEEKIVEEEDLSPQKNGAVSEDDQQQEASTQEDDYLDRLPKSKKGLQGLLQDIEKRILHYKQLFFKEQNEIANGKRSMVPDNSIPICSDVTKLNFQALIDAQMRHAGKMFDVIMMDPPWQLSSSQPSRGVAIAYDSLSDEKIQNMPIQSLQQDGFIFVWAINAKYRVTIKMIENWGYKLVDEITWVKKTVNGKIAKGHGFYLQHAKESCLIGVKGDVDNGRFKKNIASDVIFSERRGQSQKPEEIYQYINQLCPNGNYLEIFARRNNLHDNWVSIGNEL",
  "T1 sequence 2": "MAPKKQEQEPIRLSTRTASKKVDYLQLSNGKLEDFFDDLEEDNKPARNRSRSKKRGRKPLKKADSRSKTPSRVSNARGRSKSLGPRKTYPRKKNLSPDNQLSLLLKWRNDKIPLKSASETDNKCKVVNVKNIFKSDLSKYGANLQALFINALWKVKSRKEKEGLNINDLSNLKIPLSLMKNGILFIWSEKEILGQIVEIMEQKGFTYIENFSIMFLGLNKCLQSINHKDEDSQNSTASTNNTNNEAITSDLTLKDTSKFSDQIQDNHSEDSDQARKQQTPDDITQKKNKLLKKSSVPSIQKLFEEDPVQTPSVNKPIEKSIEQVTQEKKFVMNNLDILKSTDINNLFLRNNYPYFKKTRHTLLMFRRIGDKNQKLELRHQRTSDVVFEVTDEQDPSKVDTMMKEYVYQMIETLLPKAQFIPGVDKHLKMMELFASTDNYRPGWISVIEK",
  "T1 sequence 3": "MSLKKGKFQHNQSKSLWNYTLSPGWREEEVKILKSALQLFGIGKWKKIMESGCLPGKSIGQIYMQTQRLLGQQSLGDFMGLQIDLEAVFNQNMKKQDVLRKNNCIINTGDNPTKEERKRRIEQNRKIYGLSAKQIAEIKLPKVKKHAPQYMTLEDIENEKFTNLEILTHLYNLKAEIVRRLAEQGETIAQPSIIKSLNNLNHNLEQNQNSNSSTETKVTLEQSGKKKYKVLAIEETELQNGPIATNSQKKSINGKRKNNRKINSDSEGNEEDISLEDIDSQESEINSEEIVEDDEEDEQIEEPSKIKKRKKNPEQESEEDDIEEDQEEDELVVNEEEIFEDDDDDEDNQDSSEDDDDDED",
  "T1 sequence 4": "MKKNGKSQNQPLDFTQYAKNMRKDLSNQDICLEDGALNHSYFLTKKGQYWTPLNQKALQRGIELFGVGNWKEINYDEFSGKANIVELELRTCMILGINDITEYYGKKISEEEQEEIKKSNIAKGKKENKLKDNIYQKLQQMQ",
  "settings": "[3H]SAM assay, reference substrate",
  "data": [
    {"substance": "27 bp dsDNA with two ApT motifs", "values": [
      {"measurement": "activity (relative activity)", "value": 1}
    ]}
  ]
}
